Measured values taken from article PMC8648464.

Tests used:
[1] = target: T1, E. coli single-stranded DNA binding protein (SSB) (Escherichia coli, UniProt P0AGE0 1-178); test: single-molecule free solution hydrodynamic separation
[2] = target: T1, E. coli single-stranded DNA binding …; test: competition
[3] = target: T1, E. coli single-stranded DNA binding …; test: competition; remark: listed apart in the source
[4] = target: T1, E. coli single-stranded DNA binding …; test: single-molecule free solution hydrodynamic separation; remark: listed apart in the source

T1 sequence (P0AGE0 whole entry): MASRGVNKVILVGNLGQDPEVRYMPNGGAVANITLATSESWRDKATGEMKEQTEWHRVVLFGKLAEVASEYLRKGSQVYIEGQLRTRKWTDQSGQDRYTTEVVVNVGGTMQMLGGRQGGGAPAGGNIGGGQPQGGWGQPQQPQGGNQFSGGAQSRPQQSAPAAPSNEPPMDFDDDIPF

Binder | Kd [1] [nM] | Kd [2] [nM] | Kd [3] [nM] | Kd [4] [nM]
TTTTTTTTTTTTTTTTTTTTTTTTTTTTTTTTTTT (ssDNA) [35nt poly(dT)] | 10 ± 0.5 | 11.7 ± 0.6 | – | –
70nt poly(dT) (ssDNA) DNA: TTTTTTTTTTTTTTTTTTTTTTTTTTTTTTTTTTTTTTTTTTTTTTTTTTTTTTTTTTTTTTTTTTTTTT | – | – | 22.1 ± 1.5 | 21.7 ± 0.2
